T1: Human PTK7/CCK4 Protein, His Tag, Acro Biosystems PT7-H52H3 (human, UniProt Q13308 31-704)
T1 construct: bought protein; also called Human PTK7 Protein, His Tag, Acro Biosystems; not shown: His tag
T1 sequence: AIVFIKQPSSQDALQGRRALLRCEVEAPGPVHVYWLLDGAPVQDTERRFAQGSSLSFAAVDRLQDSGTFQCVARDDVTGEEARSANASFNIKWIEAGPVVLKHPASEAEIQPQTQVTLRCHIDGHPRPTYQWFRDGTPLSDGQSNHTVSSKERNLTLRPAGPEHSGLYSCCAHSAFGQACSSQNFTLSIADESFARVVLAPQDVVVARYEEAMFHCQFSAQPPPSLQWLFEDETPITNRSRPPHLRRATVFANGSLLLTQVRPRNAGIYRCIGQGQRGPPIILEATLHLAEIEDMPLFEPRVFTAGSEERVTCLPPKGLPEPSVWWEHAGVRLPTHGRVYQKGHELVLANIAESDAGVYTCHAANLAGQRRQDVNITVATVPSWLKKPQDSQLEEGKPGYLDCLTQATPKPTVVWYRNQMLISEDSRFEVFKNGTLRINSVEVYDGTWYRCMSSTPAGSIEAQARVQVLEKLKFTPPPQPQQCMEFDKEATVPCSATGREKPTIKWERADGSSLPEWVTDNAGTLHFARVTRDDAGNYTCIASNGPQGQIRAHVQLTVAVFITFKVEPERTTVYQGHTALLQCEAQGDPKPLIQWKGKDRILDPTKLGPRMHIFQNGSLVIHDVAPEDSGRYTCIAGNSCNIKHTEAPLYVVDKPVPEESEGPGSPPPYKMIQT

T2: Human PTK7 Protein, His Tag (Acro Biosystems) (human, UniProt Q13308 31-704)
T2 construct: Bought recombinant protein; also called CCK4; tyrosine-protein kinase-like 7; not shown: His tag
T2 sequence: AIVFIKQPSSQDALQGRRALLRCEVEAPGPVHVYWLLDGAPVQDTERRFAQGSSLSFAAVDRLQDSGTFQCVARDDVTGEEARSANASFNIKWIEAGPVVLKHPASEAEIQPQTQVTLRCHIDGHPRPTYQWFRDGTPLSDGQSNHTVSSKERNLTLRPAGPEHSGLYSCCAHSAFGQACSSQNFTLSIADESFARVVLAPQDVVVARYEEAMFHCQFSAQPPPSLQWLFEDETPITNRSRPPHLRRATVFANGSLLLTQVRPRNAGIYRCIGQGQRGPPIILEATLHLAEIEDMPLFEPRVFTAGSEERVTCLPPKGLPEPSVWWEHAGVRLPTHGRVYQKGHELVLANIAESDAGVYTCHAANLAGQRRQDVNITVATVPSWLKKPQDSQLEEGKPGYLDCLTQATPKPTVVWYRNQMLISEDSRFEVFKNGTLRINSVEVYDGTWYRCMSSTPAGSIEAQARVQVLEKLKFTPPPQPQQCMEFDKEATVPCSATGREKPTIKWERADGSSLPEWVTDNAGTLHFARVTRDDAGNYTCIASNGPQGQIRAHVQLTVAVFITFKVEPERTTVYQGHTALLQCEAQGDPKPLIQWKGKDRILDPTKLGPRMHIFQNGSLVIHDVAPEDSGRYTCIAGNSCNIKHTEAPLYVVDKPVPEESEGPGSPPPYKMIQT


Each binder was assayed against T1, Human PTK7/CCK4 Protein, His Tag, Acro … (assay: BLI, antibody on anti-human Fc sensor).

binding result	Binder
no binding (tested: 50 nM PTK7)	MYT6255 (antibody, V domains shown, IgG) VH: QVQLVESGGGVVQPGRSLRLSCAASGFTFSSYGMHWVRQAPGKGLEWVAVIWDDGSNKYYVDSVKGRFTISRDNSKNTLYLQMNSLRAEDTAVYYCARDHYYGSGSFNSYYGTDVWGQGTTVTVSS VL: EIVLTQSPATLSLSPGERATLSCRASQSVSIYLAWYQQKPGQAPRLLIYDASNRATGIPARFSGSGSGTDFTLTISSLEPEDFAVYYCQQRSNWPPFTFGPGTKVDIK
no binding (tested: 50 nM PTK7)	MYT6268 (antibody, V domains shown, IgG) VH: QVQLVESGGGVVQPGRSLRLSCAASGFTFSSYGMHWVRQAPGKGLEWVAVIWDDGSNKYYVDSVKGRFTISRDNSKNTLYLQMNSLRAEDTAVYYCARDDYYGSGSFNSYYGHDVWGQGTTVTVSS VL: EIVLTQSPATLSLSPGERATLSCRASQSVSIYLAWYQQKPGQAPRLLIYDASNRATGIPARFSGSGSGTDFTLTISSLEPEDFAVYYCQQRSNWPPFTFGPGTKVDIK
no binding (tested: 50 nM PTK7)	MYT6256 (antibody, V domains shown, IgG) VH: QVQLVESGGGVVQPGRSLRLSCAASGFTFSSYGMHWVRQAPGKGLEWVAVIWDDGSNKYYVDSVKGRFTISRDNSKNTLYLQMNSLRAEDTAVYYCARDDHYGSGSFNSYYGTDVWGQGTTVTVSS VL: EIVLTQSPATLSLSPGERATLSCRASQSVSIYLAWYQQKPGQAPRLLIYDASNRATGIPARFSGSGSGTDFTLTISSLEPEDFAVYYCQQRSNWPPFTFGPGTKVDIK
no binding (tested: 50 nM PTK7)	MYT6267 (antibody, V domains shown, IgG) VH: QVQLVESGGGVVQPGRSLRLSCAASGFTFSSYGMHWVRQAPGKGLEWVAVIWDDGSNKYYVDSVKGRFTISRDNSKNTLYLQMNSLRAEDTAVYYCARDDYYGSGSFNSYYHTDVWGQGTTVTVSS VL: EIVLTQSPATLSLSPGERATLSCRASQSVSIYLAWYQQKPGQAPRLLIYDASNRATGIPARFSGSGSGTDFTLTISSLEPEDFAVYYCQQRSNWPPFTFGPGTKVDIK
no binding (tested: 50 nM PTK7)	MYT6269 (antibody, V domains shown, IgG) VH: QVQLVESGGGVVQPGRSLRLSCAASGFTFSSYGMHWVRQAPGKGLEWVAVIWDDGSNKYYVDSVKGRFTISRDNSKNTLYLQMNSLRAEDTAVYYCARDDYYGSGSFNSYYGTHVWGQGTTVTVSS VL: EIVLTQSPATLSLSPGERATLSCRASQSVSIYLAWYQQKPGQAPRLLIYDASNRATGIPARFSGSGSGTDFTLTISSLEPEDFAVYYCQQRSNWPPFTFGPGTKVDIK

What follows are binders tested against T2, Human PTK7 Protein, His Tag (Acro …) (assay: BLI, antibody on anti-human Fc sensor, 50 nM PTK7 at pH 7.4, dissociation at pH 7.4 or 5.4; 1 = pH dependent binding relative to parent).

binding result	Binder
binds	MYT11349 (antibody, V domains shown, MYT9797 HC variant; captured via anti-human Fc) VH: EVQLVESGGGLVQPGGSLRLSCTASGIDLSNYAVIWVRQAPGKGLEWVGHIYTYDTTYYANWAKGRFTISRDTSKNTVYLQMNSLRAEDTAVYFCARSFSDISDLIKLWGQGTLVTVSS VL: EIVMTQSPSTLSASVGDRVIITCQASQSLYNNKDLAWYQQKPGKAPKLLIYEASKLASGVPSRFSGSGSGAEFTLTISSLQPDDFATYYCLGEFSCGSGDCLAFGQGTKLTVL
binds	MYT11393 (antibody, V domains shown, MYT9797 LC variant; captured via anti-human Fc) VH: EVQLVESGGGLVQPGGSLRLSCTASGIDLSNYAVIWVRQAPGKGLEWVGIIYTYDTTYYANWAKGRFTISRDTSKNTVYLQMNSLRAEDTAVYFCARSFSDISDLIKLWGQGTLVTVSS VL: EIVMTQSPSTLSASVGDRVIITCQASQSLYNNKHLAWYQQKPGKAPKLLIYEASKLASGVPSRFSGSGSGAEFTLTISSLQPDDFATYYCLGEFSCGSGDCLAFGQGTKLTVL
binds	MYT11380 (antibody, V domains shown, MYT9797 HC alanine variant; captured via anti-human Fc) VH: EVQLVESGGGLVQPGGSLRLSCTASGIDLSNYAVIWVRQAPGKGLEWVGIIYTYATTYYANWAKGRFTISRDTSKNTVYLQMNSLRAEDTAVYFCARSFSDISDLIKLWGQGTLVTVSS VL: EIVMTQSPSTLSASVGDRVIITCQASQSLYNNKDLAWYQQKPGKAPKLLIYEASKLASGVPSRFSGSGSGAEFTLTISSLQPDDFATYYCLGEFSCGSGDCLAFGQGTKLTVL
binds	MYT11356 (antibody, V domains shown, MYT9797 HC variant; captured via anti-human Fc) VH: EVQLVESGGGLVQPGGSLRLSCTASGIDLSNYAVIWVRQAPGKGLEWVGIIYTYDTHYYANWAKGRFTISRDTSKNTVYLQMNSLRAEDTAVYFCARSFSDISDLIKLWGQGTLVTVSS VL: EIVMTQSPSTLSASVGDRVIITCQASQSLYNNKDLAWYQQKPGKAPKLLIYEASKLASGVPSRFSGSGSGAEFTLTISSLQPDDFATYYCLGEFSCGSGDCLAFGQGTKLTVL
binds	MYT11354 (antibody, V domains shown, MYT9797 HC variant; captured via anti-human Fc) VH: EVQLVESGGGLVQPGGSLRLSCTASGIDLSNYAVIWVRQAPGKGLEWVGIIYTYHTTYYANWAKGRFTISRDTSKNTVYLQMNSLRAEDTAVYFCARSFSDISDLIKLWGQGTLVTVSS VL: EIVMTQSPSTLSASVGDRVIITCQASQSLYNNKDLAWYQQKPGKAPKLLIYEASKLASGVPSRFSGSGSGAEFTLTISSLQPDDFATYYCLGEFSCGSGDCLAFGQGTKLTVL
binds	MYT11352 (antibody, V domains shown, MYT9797 HC variant; captured via anti-human Fc) VH: EVQLVESGGGLVQPGGSLRLSCTASGIDLSNYAVIWVRQAPGKGLEWVGIIYHYDTTYYANWAKGRFTISRDTSKNTVYLQMNSLRAEDTAVYFCARSFSDISDLIKLWGQGTLVTVSS VL: EIVMTQSPSTLSASVGDRVIITCQASQSLYNNKDLAWYQQKPGKAPKLLIYEASKLASGVPSRFSGSGSGAEFTLTISSLQPDDFATYYCLGEFSCGSGDCLAFGQGTKLTVL
binds	MYT11357 (antibody, V domains shown, MYT9797 HC variant; captured via anti-human Fc) VH: EVQLVESGGGLVQPGGSLRLSCTASGIDLSNYAVIWVRQAPGKGLEWVGIIYTYDTTHYANWAKGRFTISRDTSKNTVYLQMNSLRAEDTAVYFCARSFSDISDLIKLWGQGTLVTVSS VL: EIVMTQSPSTLSASVGDRVIITCQASQSLYNNKDLAWYQQKPGKAPKLLIYEASKLASGVPSRFSGSGSGAEFTLTISSLQPDDFATYYCLGEFSCGSGDCLAFGQGTKLTVL
binds	MYT11369 (antibody, V domains shown, MYT9797 HC variant; captured via anti-human Fc) VH: EVQLVESGGGLVQPGGSLRLSCTASGIDLSNYAVIWVRQAPGKGLEWVGIIYTYDTTYYANWAKGRFTISRDTSKNTVYLQMNSLRAEDTAVYFCARSFHDISDLIKLWGQGTLVTVSS VL: EIVMTQSPSTLSASVGDRVIITCQASQSLYNNKDLAWYQQKPGKAPKLLIYEASKLASGVPSRFSGSGSGAEFTLTISSLQPDDFATYYCLGEFSCGSGDCLAFGQGTKLTVL
binds	MYT11390 (antibody, V domains shown, MYT9797 LC variant; captured via anti-human Fc) VH: EVQLVESGGGLVQPGGSLRLSCTASGIDLSNYAVIWVRQAPGKGLEWVGIIYTYDTTYYANWAKGRFTISRDTSKNTVYLQMNSLRAEDTAVYFCARSFSDISDLIKLWGQGTLVTVSS VL: EIVMTQSPSTLSASVGDRVIITCQASQSLYHNKDLAWYQQKPGKAPKLLIYEASKLASGVPSRFSGSGSGAEFTLTISSLQPDDFATYYCLGEFSCGSGDCLAFGQGTKLTVL
binds	MYT11376 (antibody, V domains shown, MYT9797 HC variant; captured via anti-human Fc) VH: EVQLVESGGGLVQPGGSLRLSCTASGIDLSNYAVIWVRQAPGKGLEWVGIIYTYDTTYYANWAKGRFTISRDTSKNTVYLQMNSLRAEDTAVYFCARSFSDISDLIHLWGQGTLVTVSS VL: EIVMTQSPSTLSASVGDRVIITCQASQSLYNNKDLAWYQQKPGKAPKLLIYEASKLASGVPSRFSGSGSGAEFTLTISSLQPDDFATYYCLGEFSCGSGDCLAFGQGTKLTVL
binds	MYT11392 (antibody, V domains shown, MYT9797 LC variant; captured via anti-human Fc) VH: EVQLVESGGGLVQPGGSLRLSCTASGIDLSNYAVIWVRQAPGKGLEWVGIIYTYDTTYYANWAKGRFTISRDTSKNTVYLQMNSLRAEDTAVYFCARSFSDISDLIKLWGQGTLVTVSS VL: EIVMTQSPSTLSASVGDRVIITCQASQSLYNNHDLAWYQQKPGKAPKLLIYEASKLASGVPSRFSGSGSGAEFTLTISSLQPDDFATYYCLGEFSCGSGDCLAFGQGTKLTVL
binds	MYT11363 (antibody, V domains shown, MYT9797 HC variant; captured via anti-human Fc) VH: EVQLVESGGGLVQPGGSLRLSCTASGIDLSNYAVIWVRQAPGKGLEWVGIIYTYDTTYYANWAHGRFTISRDTSKNTVYLQMNSLRAEDTAVYFCARSFSDISDLIKLWGQGTLVTVSS VL: EIVMTQSPSTLSASVGDRVIITCQASQSLYNNKDLAWYQQKPGKAPKLLIYEASKLASGVPSRFSGSGSGAEFTLTISSLQPDDFATYYCLGEFSCGSGDCLAFGQGTKLTVL
binds	MYT11355 (antibody, V domains shown, MYT9797 HC variant; captured via anti-human Fc) VH: EVQLVESGGGLVQPGGSLRLSCTASGIDLSNYAVIWVRQAPGKGLEWVGIIYTYDHTYYANWAKGRFTISRDTSKNTVYLQMNSLRAEDTAVYFCARSFSDISDLIKLWGQGTLVTVSS VL: EIVMTQSPSTLSASVGDRVIITCQASQSLYNNKDLAWYQQKPGKAPKLLIYEASKLASGVPSRFSGSGSGAEFTLTISSLQPDDFATYYCLGEFSCGSGDCLAFGQGTKLTVL
